From US7943358B2, “Polymerase enhancing factor (PEF) extracts, PEF protein complexes, isolated PEF protein, and methods for purifying and identifying” (Agilent Technologies, Inc., priority 1997, dated 2011)

Experiments:
Format in all cases: biochemical
Pfu DNA polymerase [1] = molecular target: T1, Pfu DNA polymerase (Pyrococcus furiosus, UniProt P61875); test: 0.9 kb α1-antitrypsin PCR in absence or presence of dUTP
T1 sequence (P61875 1-775): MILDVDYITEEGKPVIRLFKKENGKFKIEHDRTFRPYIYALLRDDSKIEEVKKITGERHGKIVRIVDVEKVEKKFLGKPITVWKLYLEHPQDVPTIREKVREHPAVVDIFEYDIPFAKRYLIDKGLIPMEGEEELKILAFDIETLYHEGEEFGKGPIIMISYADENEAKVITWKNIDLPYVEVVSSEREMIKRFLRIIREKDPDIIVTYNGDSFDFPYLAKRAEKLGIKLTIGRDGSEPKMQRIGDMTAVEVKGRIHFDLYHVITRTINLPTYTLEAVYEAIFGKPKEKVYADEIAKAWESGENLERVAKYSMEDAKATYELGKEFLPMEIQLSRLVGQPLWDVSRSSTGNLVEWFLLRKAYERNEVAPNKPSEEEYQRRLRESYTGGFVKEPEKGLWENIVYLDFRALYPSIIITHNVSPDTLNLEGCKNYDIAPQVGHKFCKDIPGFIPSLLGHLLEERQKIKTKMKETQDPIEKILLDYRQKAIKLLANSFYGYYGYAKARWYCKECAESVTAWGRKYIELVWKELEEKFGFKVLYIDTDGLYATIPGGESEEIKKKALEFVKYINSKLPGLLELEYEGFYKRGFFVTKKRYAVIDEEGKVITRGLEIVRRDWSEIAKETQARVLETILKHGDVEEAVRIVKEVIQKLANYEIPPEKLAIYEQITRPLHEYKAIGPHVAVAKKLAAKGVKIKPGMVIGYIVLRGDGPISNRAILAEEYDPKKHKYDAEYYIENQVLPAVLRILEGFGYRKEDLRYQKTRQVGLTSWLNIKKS
Description: A relatively small (0.9 kb) fragment of the human α1-antitrypsin gene was amplified in the absence or presence of dUTP. PCR reaction mixtures contained the following (in a 100 μl volume): 1× Cloned Pfu polymerase buffer; 200 μM each, dCTP, dGTP, dATP; 200 ng oligo F91-23 (100 ng/μl); 200 ng oligo R980-23 (100 ng/μl); 125 ng Human genomic DNA; 2.5 units Pfu DNA polymerase; 200 μM total of (dTTP and dUTP) or (dTTP+PEF generated dUMP).
PCR cycling was carried out as follows: 95° C. for 1 minute (1 cycle); 95° C. for 1 minute—58° C. for 1 minute—72° C. for 2 minutes (30 cycles).
Seven ng of PEF can reverse the inhibition caused by as much as 20 μM dUTP (data not shown). The preferred amount of PEF or P45 used in a particular reaction can be optimized according to the principles provided here or by methods for quantifying amplification reactions known in the art.

[2] = PPi production from dUTP (dUTPase activity), Sigma Enzymatic Determination of Pyrophosphate kit
Description: In experiments to investigate whether PPi is formed during the reaction, 900 or 1800 ng of PEF was incubated with 10 mM dUTP in 1× cloned Pfu polymerase buffer for 1 hour at 72° C. The presence of PPi in the reaction mixture was then quantified using Sigma's Enzymatic Determination of Pyrophosphate kit (Sigma Product No. P7275). The kit utilizes a coupled enzyme system whereby two moles of NADH are oxidized to NAD^+ for each mole of PPi present in the reaction mixture. The oxidation of NADH is monitored spectrophotometrically at 340 nm. […] The reactions that contained 1800 ng of PEF produced twice as much PPi as those that contained 900 ng of PEF.
The temperature optimum (Topt) for the generation of PPi from dUTP was measured by incubating mixtures of dUTP and native PEF at temperatures ranging from 73° C. to 99° C. PPi production by native PEF increased steadily over this temperature range and was highest at 99° C. […]
The enzyme activity of three different preparations of S200-purified native PEF was measured at 85° C. Protein concentrations were determined by both Bradford and by amino acid analysis. Shown below is a summary of the enzyme activity and specific activity (protein concentration determined by Bradford or AAA as indicated) of S200-purified native PEF. […]

[3] = Reverse phase HPLC analysis, reactivity with other nucleotides
Description: The similarity of P45 to dCTP deaminases prompted us to test whether dCTP or other nucleotide triphosphates were substrates of PEF/P45. PEF was incubated with dCTP or dUTP and the reaction products were separated by reverse phase HPLC. Reaction mixtures (50 μl) containing 1× cloned Pfu polymerase buffer, 10 mM dCTP or dUTP, and 700 ng PEF (or 5 μl of cloned p45 (˜100 ng) or nothing (neg. control)) were incubated at 72° C. for 1 hour. The samples were injected on a […] Waters Delta-pak C-18 column (300 angstrom/15 μm), equilibrated in 50 mM triethylammonium acetate, pH (7.0) (A). Products were eluted with acetonitrile (B) at 2 ml/min. using the following gradient: 0% B for 5 minutes, 0-10% B over 20 minutes. Absorbence of the eluate was monitored with a photodiode array detector, and peak areas were integrated at 260 nm.
In addition to dUTP, dCTP was also found to serve as a substrate for PEF (FIG. 17). The product of the PEF+dCTP reaction appeared to be dCMP, based upon its retention time and absorbence maxima. Although PEF utilizes dCTP, dUTP is the preferred substrate of PEF/P45. In the example shown, only 16.6% of the dCTP was converted in 1 hour under the same conditions which converted 100% dUTP (FIG. 17, panel B). […] No reactivity with PEF was detected for the following nucleotides: dGTP, dATP, dTTP, dCMP, dUMP, and rUTP under the conditions used.

Pfu DNA polymerase [4] = molecular target: T1, Pfu DNA polymerase; test: 0.9 kb α1-antitrypsin PCR with unrelated dU-containing or control oligonucleotide; settings: 0.8 pmole of dU containing primer; 7 ng PEF

B1: PEF: polymerase enhancing factor complex purified from Pyrococcus furiosus; predominant components P50 and P45 (protein)
chain 1: MLHHVKLIYATKSRKLVGKKIVXXXPGSIAALDVKACEGLIRHGAEVHAVMSEAATKIIHPYAWNLPTGNPVITEITGFIEHVELAGEHENKADLILVCPATANTISKIACGIDDTPVTTVVTTAFPHIPIMIAPAMHETMYRHPIVRENIERLKKLGVEFIGPRIEEGRAKVASIDEIVYRVIKKLHKKTLEGKRVLVTAGATREYIDPIRFITNASSGKMGVALAEEADFRGAVTLIRTKGSVKAFRIRKIKLKVETVEEMLSAIENELRSKKYDVVIMAAAVSDFRPKIKAEGKIKSGRSITIELVPXNPKIIDRIKEIQPNVFLVGFKAETSKEKLIEEGKRQIERAKADLVVGNTLEAFGSEENQVVLIGRDFTKELPKMKKRELAERIWDEIEKXLS
chain 2: MLLPDWKIRKEILIEPFSEESLQPAGYDLRVGREAFVKGKLIDVEKEGKVVIPPREYALILTLERIKLPDDVMGDMKIRSSLAREGVIGSFAWVDPGWDGNLTLMLYNASNEPVELRYGERFVQIAFIRLEGPARNPYRGNYQGSTRLAFSKRKKL
modifications: not fully specified; X: residue not identified in the source
notes: polymerase enhancing factor complex purified from Pyrococcus furiosus; predominant components P50 and P45
prevention of dUTP inhibition (Pfu DNA polymerase [1]; added to PCR reactions containing dUTP): completely prevented
dUTP concentration whose inhibition is reversed (Pfu DNA polymerase [1]; seven ng of PEF, as much as, data not shown): 20 µM
PPi production from dUTP (in words) [2]: clearly established
temperature optimum (Topt) for the generation of PPi from dUTP ([2]; tested from 73° C. to 99° C.): > 99 °C
reactivity with dGTP, dATP, dTTP, dCMP, dUMP, rUTP [3]: No reactivity
amplification in reactions containing dU oligo with PEF (Pfu DNA polymerase [4]): a small amount of amplification product is observed
